The record followed here is patent US20180230214A1.

The assay addresses biotinylated soluble human CD56 (human) (UniProt P13591). The assay can be described thus: flow cytometry of 56-28z-LNGFR transduced T cells stained with biotinylated soluble human CD56 (y axis 'sCD56 binding') against LNGFR (x axis). The other quadrants of this panel read 0.56 (upper left), 41.8 (lower left) and 33.1 (lower right). The sCD56 signal rises with LNGFR to about 10^3. The untransduced T cell control panel reads 0.57 (upper left), 0.27 (upper right), 97.6 (lower left) and 1.61 (lower right). In general terms: Flow cytometry measures light scatter and fluorescence of single cells or particles in a stream.

In turn, “56-28z CAR (scFv of murine anti-human CD56 antibody N901 fused to CD28/CD3z domains)” displayed a quadrant number, cells positive for sCD56 binding and for LNGFR (upper right quadrant) of 24.5%.
